# B1: ODY-37C7 (VHH)
# VHH: EVQLVESGGGLVQPGGSLRLSCAASGFTFDDIAMTWVRQAPGKGLEWVSSIYSYGPNTYYADSVKGRFTISTDSAKNTLYLQMNSLKPEDTAVYYCAADSDLSTVVVGPHDYWGQGTQVTVSS
# B2: ODY-33D4 (VHH)
# VHH: EVQLVESGGGLVQAGGSLRLSCAASGRTFSDYGMGWFRQAPGKDSEFVAAINWSNGRTNYADSVKGRFTISRDNAKNTGYLEMNSLKVEDTAVYYCAATPSGKAYSYWGQGTQVTVSS
# B3: ODY-31G3 (VHH)
# VHH: EVQLVESGGGLVQAGGSLRVSCAASGSIFRADAMGWHRQVPGKPREFVAGIRSDGFTNYAEAVKGRFTISWDTVKNTVYLQMNSLKPEDTAVYTCYYQSLSSPNYGQVFWGQGTQVTVSS
# B4: ODY-31D6 (VHH)
# VHH: EVQLVESGGGLVQAGGSLRLSCAASGSIVSTNGMGWHRQVPGKGRELVAGIRSDGFTNYADSVKGRFTISSDNVKNTVYLQMNSLKAEDSGVYFCYYQALSSPNYGQTFWGQGTQVTVSS
# B5: ODY-35A10 (VHH)
# VHH: EVQLVESGGGLVEAGGSLRLSCAASGRTFGSYTMGWFRQAPGREQEFLASIRRTGGSTSYADSVKGRFTISRDNAKKAVYLQMNSLKPEDTAVYYCAAAPTGRAFTYWGQGTQVTVSS
# Tests used:
# [1] = molecular target: T1, human TNFR2 (extracellular domain) (UniProt P20333 23-257); assay: SPR
# T1 chain: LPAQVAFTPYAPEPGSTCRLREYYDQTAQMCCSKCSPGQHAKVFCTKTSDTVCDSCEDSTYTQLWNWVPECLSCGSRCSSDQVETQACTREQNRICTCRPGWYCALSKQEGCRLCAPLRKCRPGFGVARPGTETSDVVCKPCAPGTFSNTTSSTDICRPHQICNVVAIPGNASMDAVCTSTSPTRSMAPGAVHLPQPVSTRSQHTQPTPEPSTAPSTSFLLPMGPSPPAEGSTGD
# [2] = molecular target: T1, human TNFR2 (extracellular domain); assay: binding affinity
# [3] = molecular target: T1, human TNFR2 (extracellular domain); assay: SPR
# [4] = molecular target: T1, human TNFR2 (extracellular domain); assay: SPR
# [5] = molecular target: T1, human TNFR2 (extracellular domain); assay: SPR
# [6] = molecular target: T1, human TNFR2 (extracellular domain); assay: binding affinity; marked * on sheet
# [7] = molecular target: T1, human TNFR2 (extracellular domain); assay: SPR
binder,measurement,setting,value
B1,Kd,[1],13 nM
same,Kd,[2],13 nM
B2,Kd,[2],5.6 nM
same,Kd,[3],5.6 nM
B3,Kd,[2],7.9 nM
same,Kd,[4],7.9 nM
B4,Kd,[2],19 nM
same,Kd,[5],19 nM
B5,Kd,[6],48 nM
same,Kd,[7],48 nM
